In patent US10781452B2, “FLT3 receptor antagonists for the treatment or the prevention of pain disorders” (INSTITUT NATIONAL DE LA SANTE ET DE LA RECHERCHE MEDICALE …, priority 2010, dated 2020):

Biological target: T1, full-length mFLT3 (Mus musculus, UniProt Q00342)
T1 construct: host or cells: HEK293T
T1 sequence (Q00342 28-1000): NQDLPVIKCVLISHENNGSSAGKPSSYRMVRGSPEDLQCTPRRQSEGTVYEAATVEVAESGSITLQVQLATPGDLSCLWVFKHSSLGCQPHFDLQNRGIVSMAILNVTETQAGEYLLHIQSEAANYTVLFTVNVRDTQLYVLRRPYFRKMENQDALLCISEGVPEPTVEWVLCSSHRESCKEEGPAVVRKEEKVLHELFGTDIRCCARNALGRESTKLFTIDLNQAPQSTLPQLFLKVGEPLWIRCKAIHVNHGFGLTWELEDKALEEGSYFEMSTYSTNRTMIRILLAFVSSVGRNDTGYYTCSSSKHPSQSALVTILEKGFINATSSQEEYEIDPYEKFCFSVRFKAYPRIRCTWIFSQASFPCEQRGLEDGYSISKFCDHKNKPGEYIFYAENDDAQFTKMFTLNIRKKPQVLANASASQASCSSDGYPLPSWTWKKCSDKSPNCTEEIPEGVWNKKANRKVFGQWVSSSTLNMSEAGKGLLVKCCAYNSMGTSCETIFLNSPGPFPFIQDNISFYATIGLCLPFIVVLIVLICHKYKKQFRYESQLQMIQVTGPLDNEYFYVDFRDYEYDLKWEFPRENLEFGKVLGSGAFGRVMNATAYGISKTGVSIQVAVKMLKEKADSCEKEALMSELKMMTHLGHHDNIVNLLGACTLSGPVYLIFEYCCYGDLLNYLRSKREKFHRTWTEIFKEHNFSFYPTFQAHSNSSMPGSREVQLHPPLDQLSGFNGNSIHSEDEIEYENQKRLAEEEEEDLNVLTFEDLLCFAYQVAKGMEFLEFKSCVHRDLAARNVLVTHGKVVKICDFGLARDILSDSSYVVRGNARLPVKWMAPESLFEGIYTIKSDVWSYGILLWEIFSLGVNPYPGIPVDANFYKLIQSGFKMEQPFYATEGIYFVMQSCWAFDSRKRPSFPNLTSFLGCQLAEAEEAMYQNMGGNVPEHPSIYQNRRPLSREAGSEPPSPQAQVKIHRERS
Assay: TR-FRET displacement of Red-FL binding, HEK cells expressing full-length mFLT3
Conditions: HEK cells expressing full-length mFLT3, 0.5 nM Red-FL
Experimental: The binding of the A3 antibody to full-length hFLT3 and mFLT3 was measured by displacement of extracellular FL binding on recombinant HEK cells by using time-resolved fluorescence resonance energy transfer (TR-FRET).
Chemicals and reagents. The Tag-lite® labeling medium was from Cisbio Bioassays (Condolet, France). The Lumi4-Tb derivative of O6-Benzylguanine was synthesized by Cisbio Bioassays and is commercialized as SNAP-Lumi4-Tb (Cisbio Bioassays, Ref. SSNPTBE).
A recombinant rh-FLT3-L was produced as previously reported (Verstraete K, et al. Efficient production of bioactive recombinant human Flt3 ligand in E. coli. Protein J, 2009 28: 57-65) and labeled with a red fluorescent probe (Red-FL). Poly-L-ornithine (MW of 30,000-70,000 daltons) was from Sigma-Aldrich. The plasmids encoding for the SNAP tagged human FLT3 (pSNAP-hFLT3) or the mouse FLT3 (pSNAP-mFLT3) used for transient transfection was obtained from Cisbio Bioassays. Monoclonal antibodies against FLT3 (8F2) and phosphotyrosine FLT3 (PY969) were purchased from Cell Signaling Technology and labeled with Lumi4-Tb and d2 respectively, by Cisbio.
Cell culture. HEK293T cells, used for binding assays, were maintained in DMEM Glutamax (Invitrogen) supplemented with antibiotics (penicillin 50 U/ml, streptomycin 50 μg/ml) and 10% heat-inactivated Fetal Calf Serum.
Transfection procedures. […]

B1: A3 antibody: human monoclonal antibody against FLT3; VH SEQ ID NO:1, VL SEQ ID NO:2 (antibody, V domains shown)
VH: EVQLVESGGSLVKPGGSLRLSCAASGFTFSNSYMNWVRQAPGKGLEWISDISGSSRDIDYADFVKGRFTISRDNATNSLYLQMNSLRAEDTAVYYCVRSGNSGMDVWGRGTLVTVSS
VL: QSVLTQPASVSGSPGQSITISCAGTSSDVGGGYYVSWYQQHPGKAPKLMIYYDSYRPSGVSNRFSGSKSGNTASLTISGLQAEDEADYYCSSYTNNSTRVFGGGTKLEIK
modifications: Synthetic VH domain of A3; Synthetic VL region of A3
- IC50, displacement of FL binding: about 17 μg/ml
